What was measured:
[1] = target: biotin-labeled human interleukin-2 receptor alpha subunit (ACROBiosystems) (human) (UniProt P01589); test: SPR (Biacore T200), biotin-labeled receptor subunit on streptavidin chip; relative to aldesleukin
[2] = target: T1, biotin-labeled human interleukin-2 receptor beta subunit (ACROBiosystems) (human) (UniProt P14784); test: as above
T1 sequence (biotin-labeled (site not stated), looked up): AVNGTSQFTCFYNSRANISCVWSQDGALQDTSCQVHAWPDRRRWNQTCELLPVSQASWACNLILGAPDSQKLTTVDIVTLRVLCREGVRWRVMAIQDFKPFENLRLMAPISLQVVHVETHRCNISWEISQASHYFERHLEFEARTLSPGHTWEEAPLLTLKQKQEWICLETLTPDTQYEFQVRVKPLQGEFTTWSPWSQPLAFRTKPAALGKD

[3] = target: interleukin-2 alpha receptor (SYMANSIS, #4102H) to which a human immunoglobulin Fc region was linked (UniProt P01589); test: SPR (Biacore T200), receptor-Fc captured by anti-human Ig antibody on CM5 chip; relative to analog 1 (aldesleukin)
Chain of interleukin-2 alpha receptor (SYMANSIS, #4102H) to which a human immunoglobulin Fc region was linked (P01589 22-213 limits assumed): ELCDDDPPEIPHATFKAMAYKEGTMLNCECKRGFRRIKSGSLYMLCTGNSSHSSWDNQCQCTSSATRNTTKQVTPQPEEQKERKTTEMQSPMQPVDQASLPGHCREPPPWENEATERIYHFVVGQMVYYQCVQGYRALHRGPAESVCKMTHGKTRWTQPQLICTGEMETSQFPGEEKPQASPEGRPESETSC

[4] = target: T2, interleukin-2 beta receptor (SYMANSIS, #4122H) to which a human immunoglobulin Fc region was linked (UniProt P14784); test: as above
T2 sequence (looked up): T1 sequence (biotin-labeled (site not stated), looked up)

Chain of biotin-labeled human interleukin-2 receptor alpha subunit (ACROBiosystems) (human) (P01589 22-213): as the sequence (P01589 22-213 limits assumed) above

Relative binding affinity (%) [1]: 100% | Relative binding affinity (%) [2]: 100% | Relative binding affinity (%) [3]: 100% | Relative binding affinity (%) [4]: 100%
Substance: interleukin-2 analog 1 (aldesleukin) (from UniProt P60568 22-153) (ligand)

From patent EP4678181A1
